Reference: doi:10.1101/2022.03.03.481873v1

B1: EfNSAR/OSBS (Enterococcus faecalis V583) (protein)
chain: MNIQSIETYQVRLPLKTPFVTSYGRLEEKAFDLFVITDEQGNQGFGELVAFEQPDYVQETLVTERFIIQQHLIPLLLTEAIEQPQEVSTIFEEVKGHWMGKAALETAIWDLYAKRQQKSLTEFFGPTRRKIPVGISLGIQEDLPQLLKQVQLAVEKGYQRVKLKIRPGYDVEPVALIRQHFPNLPLMVDANSAYTLADLPQLQRLDHYQLAMIEQPFAADDFLDHAQLQRELKTRICLDENIRSLKDCQVALALGSCRSINLKIPRVGGIHEALKIAAFCQENDLLVWLGGMFESGVGRALNLQFASQPTFSFPGDISATERYFYEDIITEPFILEQGTMTVPQGLGIGVTLSQTNLLKYSQYQKIM
B2: LiNSAR/OSBS (Listeria innocua Clip11262) (protein)
chain: MYFQKARLIHAELPLLAPFKTSYGELKSKDFYIIELINEEGIHGYGELEAFPLPDYTEETLSSAILIIKEQLLPLLAQRKIRKPEEIQELFSWIQGNEMAKAAVELAVWDAFAKMEKRSLAKMIGATKESIKVGVSIGLQQNVETLLQLVNQYVDQGYERVKLKIAPNKDIQFVEAVRKSFPKLSLMADANSAYNREDFLLLKELDQYDLEMIEQPFGTKDFVDHAWLQKQLKTRICLDENIRSVKDVEQAHSIGSCRAINLKLARVGGMSSALKIAEYCALNEILVWCGGMLEAGVGRAHNIALAARNEFVFPGDISASNRFFAEDIVTPAFELNQGRLKVPTNEGIGVTLDLKVLKKYTKSTEEILLNKGWS
B3: BsDE (Bacillus subtilis subsp. subtilis str. 168; K271Q) (protein)
chain: MKIIRIETSRIAVPLTKPFKTALRTVYTAESVIVRITYDSGAVGWGEAPPTLVITGDSMDSIESAIHHVLKPALLGKSLAGYEAILHDIQHLLTGNMSAKAAVEMALYDGWAQMCGLPLYQMLGGYRDTLETDYTVSVNSPEEMAADAENYLKQGFQTLKIKVGKDDIATDIARIQEIRKRVGSAVKLRLDANQGWRPKEAVTAIRKMEDAGLGIELVEQPVHKDDLAGLKKVTDATDTPIMADESVFTPRQAFEVLQTRSADLINIKLMQAGGISGAEKINAMAEACGVECMVGSMIETKLGITAAAHFAASKRNITRFDFDAPLMLKTDVFNGGITYSGSTISMPGKPGLGIIGAALLKGEKEQ
B4: BsDE (Bacillus subtilis subsp. subtilis str. 168) (protein)
chain: MKIIRIETSRIAVPLTKPFKTALRTVYTAESVIVRITYDSGAVGWGEAPPTLVITGDSMDSIESAIHHVLKPALLGKSLAGYEAILHDIQHLLTGNMSAKAAVEMALYDGWAQMCGLPLYQMLGGYRDTLETDYTVSVNSPEEMAADAENYLKQGFQTLKIKVGKDDIATDIARIQEIRKRVGSAVKLRLDANQGWRPKEAVTAIRKMEDAGLGIELVEQPVHKDDLAGLKKVTDATDTPIMADESVFTPRQAFEVLQTRSADLINIKLMKAGGISGAEKINAMAEACGVECMVGSMIETKLGITAAAHFAASKRNITRFDFDAPLMLKTDVFNGGITYSGSTISMPGKPGLGIIGAALLKGEKEQ
B5: RcNSAR/OSBS (Roseiflexus castenholzii DSM 13941) (protein)
chain: MKIESITLHHIDMPLVAPFETSFGRETHRPCILIEMRADGLTGWGECVAGAGPWYAYETIGTAWHIISDFLAPMIVGQEITEPIGIVERFASVRGHPMARAAVEAAFWDLYAQARGVSLARLIGATRDRVTVGVSVGIELTLEAQLASIERFVAAGYARIKLKIKPGWDVAVVRAVRERWPDIALQVDANSAYTPDDAPIFRELDEMNLLLIEQPLHHDDIVDHARLQAQISTPICLDESIHSPEHARWALDIDACRVINIKIGRVGGLTAARQIHDLCAERGVPVWCGGMLETNVGRAVNLALAALPNFALPGDISASARYYHRDIAAPDFVLNDDSTITVPDTPGTGVAVLPERLRDVQVREVIIGKG
B6: EcDE (Escherichia coli K-12) (protein)
chain: MRTVKVFEEAWPLHTPFVIARGSRSEARVVVVELEEEGIKGTGECTPYPRYGESDASVMAQIMSVVPQLEKGLTREELQKILPAGAARNALDCALWDLAARRQQQSLADLIGITLPETVITAQTVVIGTPDQMANSASTLWQAGAKLLKVKLDNHLISERMVAIRTAVPDATLIVDANESWRAEGLAARCQLLADLGVAMLEQPLPAQDDAALENFIHPLPICADESCHTRSNLKALKGRYEMVNIKLDKTGGLTEALALATEARAQGFSLMLGCMLCTSRAISAALPLVPQVSFADLDGPTWLAVDVEPALQFTTGELHL

Assays:
Test in all cases: purified protein
[1] = tested on: O=C(O)CCC(=O)C1=CC=C[C@@H](O)[C@@H]1C(=O)O; settings: 50 mM Tris pH 8.0, 0.1 mM MnCl2, 25 °C, Amycolatopsis numbering
purified protein [2] = substrate: O=C(O)CCC(=O)C1=CC=C[C@@H](O)[C@@H]1C(=O)O; settings: 50 mM Tris pH 8.0, 0.1 mM MnCl2, 25 °C
purified protein [3] = substrate: O=C(O)CCC(=O)N[C@@H](C(=O)O)c1ccccc1; settings: 200 mM Tris pH 8.0, 0.1 mM MnCl2, 25 °C
purified protein [4] = substrate: C[C@H](N)C(=O)N[C@@H](CCC(=O)O)C(=O)O; format: biochemical, Bacillus subtilis; settings: 50 mM Tris pH 8.0, 10 mM MgCl2, 25 °C
purified protein [5] = substrate: C[C@H](N)C(=O)N[C@@H](CCC(=O)O)C(=O)O; format: biochemical, Escherichia coli; settings: 50 mM Tris pH 8.0, 10 mM MgCl2, 25 °C

| Molecule | Km (purified protein [2]) | kcat (purified protein [2]) | Km (purified protein [3]) | kcat (purified protein [3]) | other results |
| --- | --- | --- | --- | --- | --- |
| LiNSAR/OSBS (Listeria innocua Clip11262; R266Q) |  |  |  |  | Km [1]: 163 ± 15 µM; kcat [1]: 0.57 ± 0.02 s⁻¹ |
| B1 | 17 ± 3 µM | 160 ± 7 s⁻¹ | 1500 ± 150 µM | 34 ± 1 s⁻¹ |  |
| B2 | 155 ± 16 µM | 216 ± 7 s⁻¹ | 1000 ± 270 µM | 3.74 ± 0.5 s⁻¹ |  |
| B3 |  |  |  |  | Km (purified protein [4]): 508 ± 165 µM; kcat (purified protein [4]): 0.23 ± 0.03 s⁻¹ |
| B4 |  |  |  |  | Km (purified protein [4]): 452 ± 120 µM; kcat (purified protein [4]): 21.4 ± 2 s⁻¹ |
| B5 | 116 ± 15 µM | 54.6 ± 2 s⁻¹ | 900 ± 100 µM | 12.7 ± 0.4 s⁻¹ |  |
| B6 |  |  |  |  | Km (purified protein [5]): 340 ± 60 µM; kcat (purified protein [5]): 11.4 ± 0.7 s⁻¹ |
